For this assay, the target named is KpBest^ΔC11 L177T (Klebsiella pneumoniae). Briefly: crystal structure; KpBest^ΔC11 L177T, sitting-drop vapor diffusion at 20°C, 0.05 M zinc acetate, 6% ethylene glycol, 0.1 M sodium cacodylate pH 6.0, 6.6% PEG 8000; solved to 3.1 Å by molecular replacement with 4WD8.

Turning to KpBest^ΔC11 L177T (natural protein), the stoichiometry N (commonly the number of molecules, sites or subunits per partner or assembly) was determined as 5.

Source of the values: PMC5655127.
